Five molecules from patent US20190375846A1 (ULTRAHUMAN ONE, published 2019) can be followed below.

Substitutions are numbered along the chain they refer to.

Test [1] deals with T1, human GITR at the cell surface (human, UniProt Q9Y5U5 26-241).
T1 construct: whole, on cells; The cell type is named in the assay field of each row; also called human GITR+ cells; CHO-K1 human GITR+ cells
T1 sequence (looked up): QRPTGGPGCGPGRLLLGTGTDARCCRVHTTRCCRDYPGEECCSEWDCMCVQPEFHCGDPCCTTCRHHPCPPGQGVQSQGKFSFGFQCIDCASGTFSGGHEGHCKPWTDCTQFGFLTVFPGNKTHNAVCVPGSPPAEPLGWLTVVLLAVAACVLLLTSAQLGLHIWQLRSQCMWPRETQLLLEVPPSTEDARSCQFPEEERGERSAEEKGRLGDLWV
Description: flow cytometry, human GITR-transfected murine blastoma cells, 10,000-13.7 ng/ml. As to the method:
Concentration-dependent binding to GITR at the cell surface was analysed using flow cytometry.
Background: Flow cytometry measures light scatter and fluorescence of single cells or particles in a stream.

The target in another test is T2, hICAM-1-Fc (human, UniProt P05362).
T2 construct: recombinant Fc fusion; Member of the panel m8
T2 sequence (P05362 28-480 limits assumed): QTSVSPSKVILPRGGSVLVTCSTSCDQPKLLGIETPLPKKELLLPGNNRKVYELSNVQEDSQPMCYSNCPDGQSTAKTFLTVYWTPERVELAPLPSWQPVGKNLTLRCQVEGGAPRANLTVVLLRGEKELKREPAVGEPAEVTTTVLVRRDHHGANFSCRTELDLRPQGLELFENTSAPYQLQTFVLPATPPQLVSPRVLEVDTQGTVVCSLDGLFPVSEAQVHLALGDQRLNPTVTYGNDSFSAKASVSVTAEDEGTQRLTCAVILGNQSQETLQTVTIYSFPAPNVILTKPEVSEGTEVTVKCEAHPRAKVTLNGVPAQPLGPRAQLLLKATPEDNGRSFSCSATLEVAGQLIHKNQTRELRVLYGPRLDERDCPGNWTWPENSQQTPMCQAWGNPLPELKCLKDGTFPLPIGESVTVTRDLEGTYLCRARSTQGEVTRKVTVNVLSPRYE
Put plainly: direct ELISA on coated protein, IgG at 10 µg/ml, OD 450 nm. How it is done:
(§1) Off-target homologue binding risk for mVH/mVL (FIG. 8A), VH3/VL2 (FIG. 8B) and lead engineered IgG clones G-G10 (FIG. 8C), I-C2 (FIG. 8D) and D-A6 (FIG. 8E) was examined by direct ELISA on GITR-Fc orthologs and a panel of 13 human TNFRSF and immunoglobulin superfamily proteins (as labelled on each X-axis). Binding to human, cyno and murine GITR-Fcs (h/c/mGITR-Fc) was performed at an IgG concentration of 1 μg/ml. Binding to all other proteins was performed at an IgG concentration of 10 μg/ml.
(§2) Anti-GITR antibodies were tested for polyreactivity by ELISA. Purified, recombinant, target and non-target antigens were coated in 96-well Nunc maxisorp plates at 100 ng per well in carbonate buffer, at 4° C. overnight. Plates were then washed 3× with PBS, blocked with 1% BSA in PBS, then washed 3× with PBS-Tween20. A dilution series of primary antibodies was then applied, plates were washed 3× with PBS-Tween20 followed by application of goat anti-human kappa chain-HRP 1:4,000 secondary antibody. Wells were then washed 3× with PBS-Tween20 and 2× with PBS, 100 μl TMB peroxidase substrate was added per well, the was reaction stopped by adding 100 μl 2M H₂SO₄ and absorbances were read at 450 nm. Anti-GITR antibodies were also tested for binding specificity by flow cytometry. HuT78 cells were activated by incubation with anti-CD3/anti-CD28 beads for 3 days. Naïve cells were incubated in media alone. At the end of the incubation the cells were harvested and the beads removed from the activated cells using a magnet. Cells were incubated with viability dye and then stained with anti-GITR antibodies at 4° C. […] Binding of VH1/VI1 and D-A6 IgG1 proteins were detected by subsequent incubation with a PE labelled goat anti-human IgG. Cells were fixed with 4% PFA before being stored in PBS at 4° C. overnight. Cells were analysed the next day using a BD Fortessa flow cytometer running Diva software. Analysis was performed using FlowJo software.
In general terms: An ELISA detects its analyte on a solid surface through an enzyme-linked reagent.

The target of a further test is T3, hCD4 (human, UniProt P01730).
T3 construct: purified recombinant protein; Member of the panel m8
Described as above. How it is done:
as §1, §2

The next test has as its target T4, hEpCAM-Fc (human, UniProt P16422).
T4 construct: recombinant Fc fusion; Member of the panel m8
T4 sequence (fusion chain, looked up): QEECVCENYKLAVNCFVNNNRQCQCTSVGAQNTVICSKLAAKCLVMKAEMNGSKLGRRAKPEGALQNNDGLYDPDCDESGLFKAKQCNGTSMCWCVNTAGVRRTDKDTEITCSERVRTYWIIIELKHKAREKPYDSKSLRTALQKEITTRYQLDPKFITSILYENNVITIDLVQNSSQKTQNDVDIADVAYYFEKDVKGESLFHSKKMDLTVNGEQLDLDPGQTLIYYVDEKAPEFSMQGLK
The description is as above. As to the method: as §1, §2

In the next test the target is T5, hDR6-Fc (human, UniProt O75509).
T5 construct: recombinant Fc fusion; Member of the panel m8
T5 sequence (fusion chain, looked up): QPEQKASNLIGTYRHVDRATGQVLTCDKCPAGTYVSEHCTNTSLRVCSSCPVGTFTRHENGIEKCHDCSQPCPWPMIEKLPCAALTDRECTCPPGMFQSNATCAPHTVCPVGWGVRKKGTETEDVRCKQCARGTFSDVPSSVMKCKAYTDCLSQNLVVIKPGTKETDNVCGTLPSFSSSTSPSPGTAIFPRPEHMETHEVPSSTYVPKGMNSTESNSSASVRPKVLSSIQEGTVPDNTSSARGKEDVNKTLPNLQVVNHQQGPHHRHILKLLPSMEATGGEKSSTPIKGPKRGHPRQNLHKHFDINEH
Described as above. As to the method:
as §1, §2

A further test concerns the target T6, hOX40-Fc.
T6 construct: Member of the panel m8; not shown: Fc part and any linker
T6 chain: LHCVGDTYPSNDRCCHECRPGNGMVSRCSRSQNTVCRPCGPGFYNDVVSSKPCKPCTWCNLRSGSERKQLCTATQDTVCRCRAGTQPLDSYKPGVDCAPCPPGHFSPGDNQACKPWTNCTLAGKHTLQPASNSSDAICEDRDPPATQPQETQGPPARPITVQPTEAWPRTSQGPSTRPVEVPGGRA
The test is described as above. As to the method:
as §1, §2

A further test has as its target T7, hDR3-Fc (human, UniProt Q93038).
T7 construct: recombinant Fc fusion; Member of the panel m8
T7 sequence (fusion chain, looked up): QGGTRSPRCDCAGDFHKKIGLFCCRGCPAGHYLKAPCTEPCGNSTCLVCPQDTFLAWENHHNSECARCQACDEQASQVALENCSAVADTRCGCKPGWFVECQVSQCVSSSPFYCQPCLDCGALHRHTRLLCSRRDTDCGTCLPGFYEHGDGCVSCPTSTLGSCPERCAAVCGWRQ
The description is as above. How it is done:
as §1, §2

For the next test, the target named is T8, hLTBR-Fc (human, UniProt P36941).
T8 construct: recombinant Fc fusion; Member of the panel m8
T8 sequence (P36941 28-227 limits assumed): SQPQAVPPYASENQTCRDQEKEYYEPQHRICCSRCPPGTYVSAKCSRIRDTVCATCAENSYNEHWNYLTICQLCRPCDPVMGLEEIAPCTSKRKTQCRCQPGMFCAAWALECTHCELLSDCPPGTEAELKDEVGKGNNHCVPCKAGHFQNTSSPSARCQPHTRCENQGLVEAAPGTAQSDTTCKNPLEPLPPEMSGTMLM
The test is described as above. How it is done: as §1, §2

The next test has as its target T9, h4-1BB-Fc.
T9 construct: Member of the panel m8; not shown: Fc part and any linker
The description is as above. As to the method: as §1, §2

T9 sequence (chain, as listed by the source limits assumed): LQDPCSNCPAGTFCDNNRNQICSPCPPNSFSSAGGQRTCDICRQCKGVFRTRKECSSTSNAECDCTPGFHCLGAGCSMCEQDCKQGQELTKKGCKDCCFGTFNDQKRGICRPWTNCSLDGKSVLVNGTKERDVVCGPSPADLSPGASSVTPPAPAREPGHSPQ

B1: chimeric anti-GITR IgG1 mVH/mVL (6C8 murine v-domains) (antibody, V domains shown)
VH: QVTLKESGPGILKPSQTLSLTCSFSGFSLSTSGMGVGWIRQPSGKGLEWLAHIWWDDDKYYNPSLKSQLTISKDTSRNQVFLKITSVDTADAATYYCARTRRYFPFAYWGQGTLVTVSS
VL: DIVMTQSQKFMSTSVGDRVSVTCKASQNVGTNVAWYQQKPGQSPKALIYSASYRYSGVPDRFTGSGSGTDFTLTINNVHSEDLAEYFCQQYNTDPLTFGAGTKLEIK
notes: Full-length human IgG1, kappa; also called GITR-mVH/mVL; chimeric IgG
B1: in [1], the “concentration at maximum MFI” value was about 1110 ng/mL. Also, the binding result with hICAM-1-Fc, with hCD4, in the test with hEpCAM-Fc, with hDR6-Fc, with hOX40-Fc and with hDR3-Fc was “no binding (tested: 10 µg/ml)” each time. The binding result in the test with hLTBR-Fc and with h4-1BB-Fc was “no binding (tested: 10 µg/ml)” throughout.

B2: D-A6 IgG1 (antibody, V domains shown)
VH: EVQLVESGGGLVQPGGSLRLSCAASGFSLSTSGYGVGWVRQAPGKGLEWLAHIWWDDDKYYVDSVKGRFTISRDNAKNSLYLQMNSLRAEDTAVYYCARTRQYFPFAYWGQGTLVTVSS
VL: EIVLTQSPATLSLSPGERATLSCRASQSVGSNLAWYQQKPGQAPRLLIYSASYRYTGIPARFSGSGSGTDFTLTISSLEPEDFAVYYCQQYSTDPLTFGGGTKVEIK
notes: Human IgG1
With B2, in test [1], the “concentration at maximum MFI” value is about 1110 ng/mL. In addition, the binding result in the test with hICAM-1-Fc, with hCD4, with hEpCAM-Fc, with hDR6-Fc, in the test with hOX40-Fc and with hDR3-Fc was “no binding (tested: 10 µg/ml)” throughout. The binding result with hLTBR-Fc and with h4-1BB-Fc was “no binding (tested: 10 µg/ml)” in each case.

B3: VH3/VL2 IgG1 (antibody, V domains shown)
VH: B2 VH with Y34M, Q102R
VL: B2 VL with S28N, S31T, L33V, T56S, S92N
notes: Human IgG1; template of the mutagenesis library; also called G-VH3/VL2; VH3 family
B3: the “concentration at maximum MFI” value in test [1] is about 1110 ng/mL. Besides, the binding result in the test with hICAM-1-Fc, with hCD4, in the test with hEpCAM-Fc, in the test with hDR6-Fc, with hOX40-Fc and with hDR3-Fc was “no binding (tested: 10 µg/ml)” throughout. In addition, the binding result with hLTBR-Fc and with h4-1BB-Fc was “no binding (tested: 10 µg/ml)” each time.

B4: I-C2 IgG1 (antibody, V domains shown)
VH: B2 VH with Q102L
VL: B2 VL with S28N, Y53N, T56S
notes: Human IgG1
For the molecule B4, the “concentration at maximum MFI” value in test [1] was about 1110 ng/mL. Besides, the binding result with hICAM-1-Fc, with hCD4, in the test with hEpCAM-Fc, with hDR6-Fc, with hOX40-Fc and with hDR3-Fc was “no binding (tested: 10 µg/ml)” each time. Also, the binding result with hLTBR-Fc and in the test with h4-1BB-Fc was “no binding (tested: 10 µg/ml)” in each case.

B5: G-G10 IgG1 (antibody, V domains shown)
VH: B2 VH with S32F
VL: B2 VL with S31T, S50Y, T93N
notes: Human IgG1
With B5, in test [1], the “concentration at maximum MFI” value was about 1110 ng/mL. Further, the binding result with hICAM-1-Fc, with hCD4, with hEpCAM-Fc, with hDR6-Fc, with hOX40-Fc and in the test with hDR3-Fc was “no binding (tested: 10 µg/ml)” throughout. Also, the binding result with hLTBR-Fc and with h4-1BB-Fc was “no binding (tested: 10 µg/ml)” throughout.
